Target: recombinant soluble human beta secretase expressed in CHO-K1 cells (Hu_Asp-2LΔTM(His)6), not treated with HIV protease (UniProt P56817)

HIV-1 protease
cleavage of the F39-V40 bond (N-terminal sequence analysis): nearly 100% cleavage of the F^39-V^40 bond occurred

— patent publication US7384773
